Experimental data reported in paper PMC3413153.
Where a chain is given by its changes, count along the chain named.

How the values were obtained:
[1] = target: T1, KSRP KH1-4 WT (human, UniProt Q92945); assay: BLI
T1 sequence: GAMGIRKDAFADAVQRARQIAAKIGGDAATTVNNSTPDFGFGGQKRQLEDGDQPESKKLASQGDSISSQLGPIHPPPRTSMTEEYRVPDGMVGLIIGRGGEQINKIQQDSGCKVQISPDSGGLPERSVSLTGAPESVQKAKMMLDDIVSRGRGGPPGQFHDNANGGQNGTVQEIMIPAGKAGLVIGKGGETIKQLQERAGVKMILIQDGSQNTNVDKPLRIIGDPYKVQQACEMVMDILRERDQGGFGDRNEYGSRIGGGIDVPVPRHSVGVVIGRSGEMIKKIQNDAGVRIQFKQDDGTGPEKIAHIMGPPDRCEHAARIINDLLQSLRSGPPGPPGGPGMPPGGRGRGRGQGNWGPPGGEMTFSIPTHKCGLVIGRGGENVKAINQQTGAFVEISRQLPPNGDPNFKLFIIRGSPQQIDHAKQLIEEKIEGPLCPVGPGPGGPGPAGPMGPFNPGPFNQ

[2] = target: T2, KSRP KH1-4, KH2 mutant (human, UniProt Q92945 68-525, K251D;G252D); assay: BLI
T2 sequence: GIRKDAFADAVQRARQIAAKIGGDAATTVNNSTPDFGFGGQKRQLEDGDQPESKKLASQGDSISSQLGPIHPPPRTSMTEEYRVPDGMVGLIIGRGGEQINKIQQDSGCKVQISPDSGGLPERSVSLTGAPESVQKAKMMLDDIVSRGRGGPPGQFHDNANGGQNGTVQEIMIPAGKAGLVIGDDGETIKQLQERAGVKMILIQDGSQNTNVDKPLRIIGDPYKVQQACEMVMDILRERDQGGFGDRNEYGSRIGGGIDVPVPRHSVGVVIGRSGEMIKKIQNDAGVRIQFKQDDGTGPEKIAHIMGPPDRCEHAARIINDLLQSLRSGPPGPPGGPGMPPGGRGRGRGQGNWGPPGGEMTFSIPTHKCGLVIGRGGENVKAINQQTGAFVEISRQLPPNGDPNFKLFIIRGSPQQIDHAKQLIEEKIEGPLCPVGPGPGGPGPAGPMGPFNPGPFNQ

[3] = target: T3, KSRP KH1-4, KH1 mutant (human, UniProt Q92945 68-525, R162D;G163D); assay: BLI
T3 sequence: T2 sequence with R95D, G96D, D184K, D185G

[4] = target: T4, KSRP KH1-4, KH3 mutant (human, UniProt Q92945 68-525, R340D;S341D); assay: BLI
T4 sequence: T2 sequence with D184K, D185G, R273D, S274D

[5] = target: T5, KSRP KH1-4, KH4 mutant (human, UniProt Q92945 68-525, R442D;G443D); assay: BLI
T5 sequence: T2 sequence with D184K, D185G, R375D, G376D

[6] = target: T6, KSRP KH3 (human, UniProt Q92945); assay: NMR
T6 sequence: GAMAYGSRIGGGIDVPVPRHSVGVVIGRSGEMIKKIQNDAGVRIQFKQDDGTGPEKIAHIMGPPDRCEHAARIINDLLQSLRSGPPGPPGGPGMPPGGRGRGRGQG

[7] = target: T7, KSRP KH2 (human, UniProt Q92945); assay: NMR
T7 sequence: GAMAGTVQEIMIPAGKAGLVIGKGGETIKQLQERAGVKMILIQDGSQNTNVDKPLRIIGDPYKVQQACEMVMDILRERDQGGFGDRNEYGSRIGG

[8] = target: T8, KSRP KH1 (human, UniProt Q92945); assay: NMR
T8 sequence: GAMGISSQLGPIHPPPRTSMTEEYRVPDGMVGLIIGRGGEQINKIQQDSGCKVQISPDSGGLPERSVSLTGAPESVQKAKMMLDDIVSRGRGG

[9] = target: T9, KSRP KH4 (human, UniProt Q92945); assay: NMR
T9 sequence: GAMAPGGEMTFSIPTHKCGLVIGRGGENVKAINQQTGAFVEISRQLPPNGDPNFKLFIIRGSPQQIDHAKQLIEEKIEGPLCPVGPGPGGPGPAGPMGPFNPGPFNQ

[10] = target: ZBP1 KH34 (Y396F) (UniProt Q9NZI8, Y396F); assay: NMR

GUGUGUUAUUAUUUAUUAUUUAUUUAUUAUUUAUUUAUUCAG (ssRNA) [TNFalpha BLI ARE 42-mer]
Kd [1]: 0.0036 ± 0.0014 µM
Kd [2]: 0.043 ± 0.014 µM
Kd [3]: 0.0073 ± 0.0017 µM
Kd [4]: 0.095 ± 0.019 µM
Kd [5]: 0.05 ± 0.016 µM

UGGGU (ssRNA)
binding result [6]: binds

UUUAG (ssRNA)
binding result [7]: binds

UUGGG (ssRNA)
binding result [8]: binds

UAGGG (ssRNA)
binding result [9]: binds

GCACACCC (ssRNA)
binding result [10]: binds
